Experimental findings from patent US12338287B2, “Treatment of cancer using a CD33 chimeric antigen receptor” (Novartis AG, priority 2014, dated 2025) are described below.

One assay deals with MOLM13. As to the kind of experiment: NFAT-dependent luciferase reporter activation of JNL cells. The assay is classed as cell-based. The settings on record: JNL cells co-cultured with MOLM13 relative to MOLP8 or GFP JNL cells; 24 hours. An excerpt: FIGS. 28A, 28B, 28C, and 28D are images showing the ability of individual scFv's targeting hsCD33 to elicit NFAT activity in JNL cells. JNL cells expressing scFv's against hsCD33 were co-cultured with MOLM13 or MOLP8 cell lines, which express hsCD33 or lack hsCD33 cell surface expression, respectively (FIG. 28A; hsCD33, solid green line; isotype control, gray dashed line and shaded area). FIG. 28B depicts the activation of JNL cells expressing an scFv targeting hsCD33 in the presence of MOLM13 (solid lines) or MOLP8 (dashed lines) cells. JNL cells expressing individual scFv's were plated at different effector (i.e. JNL cells) to target (i.e. MOLM13 or MOLP8) ratios and analyzed for the expression of relative luciferase units (RLUs) using the Bright-Glo™ Luciferase Assay on the EnVision instrument 24 hours post-incubation. FIG. 28C is a version of FIG. 28B, depicting the activation of JNL cells in the presence of MOLM13. […]
Individual scFv's targeting hsCD33 were evaluated for their ability to elicit NFAT activity in JNL cells (FIG. 28). […] JNL cells expressing individual scFv's were plated at different effector (i.e. JNL cells) to target (i.e. MOLM13 or MOLP8) ratios and analyzed for the expression of relative luciferase units (RLUs) using the Bright-Glo™ Luciferase Assay on the EnVision instrument 24 hours post-incubation.
(In a reporter assay the amount or activity of a reporter protein is the signal.)

Assay [1] concerns the target recombinant Fc-tagged hsCD33 (Homo sapiens, UniProt P20138). As to the kind of experiment: scFv binding to recombinant CD33 by flow cytometry (JNL cells). To be noted: scFv on JNL cells, Fc-tagged hsCD33, PE secondary; FIG. 32. Here is the method: Finally, scFv cross-reactivity to cynomolgus CD33 (cyCD33) was assessed by flow cytometry as depicted in FIG. 32. JNL cells transduced with a lentiviral vector expressing scFv's raised against hsCD33 were incubated with either recombinant Fc-tagged hsCD33 (red line) or cyCD33 (blue line) followed by incubation with an Fc-specific secondary antibody conjugated to phycoerythrin.

recombinant Fc-tagged hsCD33, sequence (P20138 18-259 limits assumed): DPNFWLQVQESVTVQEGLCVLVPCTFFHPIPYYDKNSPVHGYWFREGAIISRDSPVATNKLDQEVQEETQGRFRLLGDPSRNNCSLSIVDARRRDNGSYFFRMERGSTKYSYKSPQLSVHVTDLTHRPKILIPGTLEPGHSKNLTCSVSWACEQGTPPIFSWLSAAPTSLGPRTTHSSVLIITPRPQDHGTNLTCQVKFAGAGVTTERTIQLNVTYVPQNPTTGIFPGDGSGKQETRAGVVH

B1: CD33-UPenn: an scFv based on the sequence of Mylotarg, a monoclonal antibody that binds to the human CD33 antigen (protein)
chain: EIVLTQSPGSLAVSPGERVTMSCKSSQSVFFSSSQKNYLAWYQQIPGQSPRLLIYWASTRESGVPDRFTGSGSGTDFTLTISSVQPEDLAIYYCHQYLSSRTFGQGTKLEIKRGGGGSGGGGSSGGGSQVQLQQPGAEVVKPGASVKMSCKASGYTFTSYYIHWIKQTPGQGLEWVGVIYPGNDDISYNQKFQGKATLTADKSSTTAYMQLSSLTSEDSAVYYCAREVRLRYFDVWGQGTTVTVSS
modifications: left off: small tags and cut ends
On to B1, for which the “NFAT-dependent luciferase activity (RLUs)” value with MOLM13 is on record as “capable of triggering NFAT-dependent luciferase activity”. Further, the “Binding of hsCD33” value in assay [1] is on record as “capable of binding hsCD33”.
